Assay results: US20230295310A1 (ABCELLERA BIOLOGICS, published 2023)

Legend:
[1] = target: T1, human CD3 expressed on cells (human, UniProt P07766 23-207; P04234 22-171; P09693 23-182); test: flow cytometry, 25 nM
T1 construct: whole, on cells; CD3 complex on Jurkat cells and on human primary T cells
Procedure, shortened: (§1)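 Antibodies at 25 nM in PBS + 2% FBS were incubated with CD3-expressing cells for 30 minutes at 4° C and analysed by flow cytometry. Median fluorescence intensity was normalized to isotype control to give fold over isotype (FOI); FOI ≥10 counted as binding.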

[2] = target: T1, human CD3 expressed on cells; test: flow cytometry, human primary T cells (Jurkat cells in c2 gave 15.495, CD3 KO Jurkat cells in c3 gave 38.63)
Description: Purified antibodies were confirmed to bind CD3 expressed on cells using the CytoFLEX S or LX flow cytometers (Beckman Coulter). Antibodies were diluted to 25 nM in FACS buffer (PBS+2% FBS) and were incubated with CD3-expressing cells for 30 minutes at 4° C. […] The median fluorescence intensity of the binding signal for each antibody was normalized to the isotype control to obtain a fold over isotype value. An antibody with a fold over isotype (FOI) of ≥10 was considered to be positive for binding.

[3] = target: T2, cynomolgus monkey CD3 expressed on primary T cells (cynomolgus monkey, UniProt Q95LI5 22-198; Q95LI8 22-171; Q95LI7 23-181); test: flow cytometry, 25 nM, cyno primary T cells
T2 construct: whole, on cells; CD3 complex on purified cynomolgus monkey T cells; also called cyno CD3
T2 sequence (Q95LI5 22-198, chain 1 of 3): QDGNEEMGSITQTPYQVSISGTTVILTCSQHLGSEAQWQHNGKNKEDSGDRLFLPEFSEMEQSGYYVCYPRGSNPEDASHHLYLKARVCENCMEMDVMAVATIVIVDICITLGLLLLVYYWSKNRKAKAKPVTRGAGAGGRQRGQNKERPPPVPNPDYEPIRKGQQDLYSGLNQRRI
T2 sequence (Q95LI8 22-171, chain 2 of 3): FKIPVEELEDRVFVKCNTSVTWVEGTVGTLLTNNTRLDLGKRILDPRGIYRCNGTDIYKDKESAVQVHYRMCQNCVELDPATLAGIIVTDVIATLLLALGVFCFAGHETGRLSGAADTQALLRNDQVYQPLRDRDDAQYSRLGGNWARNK
T2 sequence (Q95LI7 23-181, chain 3 of 3): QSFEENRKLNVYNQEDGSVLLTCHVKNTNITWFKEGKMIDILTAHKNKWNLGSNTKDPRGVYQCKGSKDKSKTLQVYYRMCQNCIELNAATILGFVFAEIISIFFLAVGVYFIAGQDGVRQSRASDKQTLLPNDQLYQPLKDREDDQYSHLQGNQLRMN
Procedure, shortened: as §1

T1 sequence (P07766 23-207, chain 1 of 3): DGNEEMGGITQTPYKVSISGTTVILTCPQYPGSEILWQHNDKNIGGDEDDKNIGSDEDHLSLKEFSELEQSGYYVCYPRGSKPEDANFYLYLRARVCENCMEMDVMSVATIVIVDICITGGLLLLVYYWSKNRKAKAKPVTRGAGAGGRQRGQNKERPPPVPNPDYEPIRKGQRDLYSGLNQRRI
T1 sequence (P04234 22-171, chain 2 of 3): as the sequence (Q95LI8 22-171, chain 2 of 3) above, with V5I, K15N, V20I, T32S, N33D, N34I, A64T, N74S, L83V, R141H counted along it
T1 sequence (P09693 23-182, chain 3 of 3): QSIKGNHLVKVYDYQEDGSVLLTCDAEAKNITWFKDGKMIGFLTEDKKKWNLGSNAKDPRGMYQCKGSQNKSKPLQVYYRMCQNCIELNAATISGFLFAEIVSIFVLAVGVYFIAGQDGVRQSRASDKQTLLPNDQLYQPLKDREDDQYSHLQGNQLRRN

Jurkat Cell Binding (FOI) [1]: 15.5 FOI | binding result [3]: no binding (tested: FOI >=10 = positive)
B1: mAb 143 (antibody, V domains shown)
VH: QVQLMQSGSELEKPGASVKVSCKASGYTFTSFAINWVRQAPGQGLEWMGWINTITGNPSYAQGFTGRFVFSLDTSVTTAFLQINSLKTEDTAVYYCARYVTSSGKFDYWGQGTLVTVSS
VL: DIQMTQSPSSVSASVGDRVTITCRASRGISRWLDWYQQKPGKAPKLLIYAASNLQGGVPSRFSGSGSGTDFTLTIRSLQPEDFAIYYCQQAKTFPFTFGPGTKVDIK
binding result [2]: no binding (tested: FOI >=10 = positive; 25 nM)
